8 molecules from US20060073146A1 (Genentech, published 2006) can be followed below.

Ends that are not written are not given here.

The chains are these.
T1: TACI (the 265 amino acid form of human TACI, hTACI (265)), expressed on transfected cells (human, UniProt O14836 1-258)
T1 sequence: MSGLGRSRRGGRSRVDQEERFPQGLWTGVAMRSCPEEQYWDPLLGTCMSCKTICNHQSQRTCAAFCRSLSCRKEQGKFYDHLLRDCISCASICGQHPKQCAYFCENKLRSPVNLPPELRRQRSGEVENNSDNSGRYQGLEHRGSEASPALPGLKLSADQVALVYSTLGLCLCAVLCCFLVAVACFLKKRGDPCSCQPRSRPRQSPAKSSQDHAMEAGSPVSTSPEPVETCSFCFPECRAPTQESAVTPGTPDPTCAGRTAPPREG

T2: DcR3-IgG (IgG1-Fc fusion of the ECD of DcR3) (human, UniProt O95407 30-300, limits assumed)
T2 construct: extracellular domain; Control immunoadhesin; not shown: IgG1 Fc
T2 sequence (looked up): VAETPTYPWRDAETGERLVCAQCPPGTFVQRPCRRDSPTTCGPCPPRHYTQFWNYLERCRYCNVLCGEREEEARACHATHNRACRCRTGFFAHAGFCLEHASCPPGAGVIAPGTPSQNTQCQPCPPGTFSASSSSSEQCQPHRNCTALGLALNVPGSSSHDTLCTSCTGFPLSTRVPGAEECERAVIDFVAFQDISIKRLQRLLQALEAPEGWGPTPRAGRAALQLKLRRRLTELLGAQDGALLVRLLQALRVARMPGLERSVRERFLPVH

B1: Flag-AP-APRIL (ligand)
chain: AVLTQKQKKQHSVLHLVPINATSKDDSDVTEVMWQPALRRGRGLQAQGYGVRIQDAGVYLLYSQVLFQDVTFTMGQVVSREGQGRQETLFRCIRSMPSHPDRAYNSCYSAGVFHLHQGDILSVIIPRARAKLNLSPHGTFLGFVKL
notes: APRIL fused C-terminally to AP, AP fused C-terminally to Flag; not shown: Flag tag of the pCMV-1 Flag vector; human placental alkaline phosphatase
B2: Flag-APRIL (ligand, not shown: small tags and cut ends)
chain: B1 chain
notes: also called Flag-tagged APRIL fusion protein
B3: BCMA, expressed on transfected cells (receptor)
chain: MLQMAGQCSQNEYFDSLLHACIPCQLRCSSNTPPLTCQRYCNASVTNSVKGTNAILWTCLGLSLIISLAVFVLMFLLRKISSEPLKDEFKNTGSGLLGMANIDLEKSRTGDEIILPRGLEYTVEECTCEDCIKSKPKVDSDHCFPLPAMEEGATILVTTKTNDYCKSLPAALSATEIEKSISAR
B4: Flag-LIGHT (ligand, UniProt O43557 82-240, looked up, not shown: small tags and cut ends)
chain: QLIQERRSHEVNPAAHLTGANSSLTGSGGPLLWETQLGLAFLRGLSYHDGALVVTKAGYYYIYSKVQLGGVGCPLGLASTITHGLYKRTPRYPEELELLVSQQSPCGRATSSSRVWWDSSFLGGVVHLEAGEKVVVRVLDERLVRLRDGTRSYFGAFMV
notes: range 82-240; Control ligand; purified on M2 anti-Flag resin; also called Flag-tagged form of LIGHT
B5: TACI-ECD.hFc immunoadhesin (amino acids 2-166 of human TACI fused to human IgG1 Fc) (Fc fusion, not shown: a dimerising Fc or GST)
chain: SGLGRSRRGGRSRVDQEERFPQGLWTGVAMRSCPEEQYWDPLLGTCMSCKTICNHQSQRTCAAFCRSLSCRKEQGKFYDHLLRDCISCASICGQHPKQCAYFCENKLRSPVNLPPELRRQRSGEVENNSDNSGRYQGLEHRGSEASPALPGLKLSADQVALVYST
notes: also called TACI-IgG; TACI-Fc
B6: BCMA-ECD immunoadhesin (amino acids 5-51 of human BCMA fused to human IgG1 Fc) (Fc fusion, not shown: a dimerising Fc or GST)
chain: AGQCSQNEYFDSLLHACIPCQLRCSSNTPPLTCQRYCNASVTNSVKG
modifications: not fully specified (C-terminus); cysteine pairing not given here; also: C-terminal fusion to human IgG1 Fc (limits not given here)
notes: also called BCMA-IgG; BCMA-Fc
B7: AP-EDA (comprising amino acids 241-391 of EDA) (ligand, UniProt Q92838 241-391, looked up)
chain: AGTRENQPAVVHLQGQGSAIQVKNDLSGGVLNDWSRITMNPKVFKLHPRSGELEVLVDGTYFIYSQVEVYYINFTDFASYEVVVDEKPFLQCTRSIETGKTNYNTCYTAGVCLLKARQKIAVKMVHADISINMSKHTTFFGAIRLGEAPAS
notes: range 241-391; Used as conditioned medium; not shown: human placenta alkaline phosphatase (AP)

Assay [1] deals with B2. The assay can be described thus: ELISA: Flag-APRIL plus control IgG on BCMA-IgG captured by anti-human Fc; bound Flag-APRIL detected with biotinylated anti-Flag.
In assay [2] the target is B2. Put plainly: ELISA: Flag-APRIL plus control IgG on TACI-IgG captured by anti-human Fc; bound Flag-APRIL detected with biotinylated anti-Flag.
For assay [3], the target named is T1, TACI (the 265 amino acid form of human …). The assay can be described thus: conditioned medium on receptor-transfected COS 7 cells, in situ AP staining.
In assay [4] the target is T2, DcR3-IgG (IgG1-Fc fusion of the ECD of …). The assay can be described thus: co-immunoprecipitation (protein A or anti-Flag M2 agarose) and Western blot. The procedure: (§1) One μg of the purified human or Flag-LIGHT (control), Flag-APRIL, or Flag-TALL-1, or Flag-AP-APRIL, or Flag-AP-TALL-1 was incubated with 1 μg of purified human immunoadhesin containing the IgG1-Fc fusion of the ECD of DcR3 (control; Pitti et al., Nature, 396:699-703 (1998)) or TACI or BCMA overnight at 4° C. in duplicate. The TACI-ECD.hFc immunoadhesins were prepared by methods described in Ashkenazi et al., Proc. Natl. Acad. Sci., 88:10535-10539 (1991). The immunoadhesin constructs consisted of amino acids 2-166 of the human TACI polypeptide (see FIG. 1). The TACI-ECD constructs were expressed in CHO cells using a heterologous signal sequence (pre-pro trypsin amino acids 1-17 of pCMV-1 Flag (Sigma)) and encoding the human IgG1 Fc region downstream of the TACI sequence, and then purified by protein A affinity chromatography. The BCMA-ECD immunoadhesins were prepared by methods described in Ashkenazi et al., as cited above. The immunoadhesin constructs consisted of amino acids 5-51 of the human BCMA polypeptide (see FIG. 2). The BCMA-ECD constructs were expressed in CHO cells using a heterologous signal sequence (pre-pro trypsin amino acids 1-17 of pCMV-1 Flag (Sigma)) and encoding the human IgG1 Fc region downstream of the BCMA sequence, and then purified by protein A affinity chromatography.
(§2) One set of reactions (FIG. 8; Panels A-C) was subjected to immunoprecipitation through the receptor-immunoadhesin with protein A-agarose (Repligen). The second set of reactions (FIG. 8; panels D-F) was subjected to immunoprecipitation through the Flag-tagged ligand with Anti-Flag mAb-M2-agarose (Sigma). The immunoprecipitates were then analyzed by Western blot with horseradish peroxidase-conjugated anti-Flag M2 mAb (Sigma) to detect the Flag-tagged ligands (FIGS. 8A-C) or horseradish peroxidase-conjugated goat anti-human IgG pAb (Amersham) to detect the receptor-immunoadhesins (FIGS. 8D-F).

The assay “Flag-AP-APRIL” concerns the target B1. Put plainly: conditioned medium on receptor-transfected COS 7 cells, in situ AP staining.
The target of assay [5] is T3, Flag-AP-TALL-1 (Example 2 construct, TALL-1 amino acids 135-285) (human, UniProt Q9Y275 135-285).
T3 construct: not shown: Flag tag of the pCMV-1 Flag vector; human placental alkaline phosphatase
T3 sequence (Q9Y275 135-285): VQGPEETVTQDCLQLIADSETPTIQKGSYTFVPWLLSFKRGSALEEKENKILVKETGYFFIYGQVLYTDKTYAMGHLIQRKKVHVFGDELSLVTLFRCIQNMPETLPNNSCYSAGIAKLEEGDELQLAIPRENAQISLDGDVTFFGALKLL
The assay is described as above.

Assay [6] deals with B5. Put plainly: co-immunoprecipitation (protein A or anti-Flag M2 agarose) and Western blot. As for the experimental part: as §1, §2
The target of assay [7] is T4, Human TNF-alpha, membrane form on transfected COS 7 cells (Flag tag inserted between amino acid 70 and 71) (human, UniProt P01375 1-233).
T4 construct: whole, on cells
T4 sequence (P01375 whole entry): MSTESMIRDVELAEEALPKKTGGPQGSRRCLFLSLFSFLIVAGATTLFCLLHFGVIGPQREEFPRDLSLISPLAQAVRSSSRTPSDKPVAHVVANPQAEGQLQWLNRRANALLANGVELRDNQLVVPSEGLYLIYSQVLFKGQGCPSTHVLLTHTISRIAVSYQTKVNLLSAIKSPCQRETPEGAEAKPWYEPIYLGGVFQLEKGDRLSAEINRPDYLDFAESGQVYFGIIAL
The assay can be described thus: Fc fusion on ligand-transfected COS 7 cells, biotinylated anti-human antibody and Cy3-streptavidin staining. The procedure:
Additional assays were conducted to determine whether TACI could serve as a receptor for other members of the TNF family of ligands. COS 7 cells (ATCC) were transiently transfected (using Lipofectamine reagent) with membrane forms of various ligands of TNF family. Among the ligands tested were APRIL, TALL-1, 4-1 BBL, CD27L, CD30L, CD40L, EDA, FasL, GITRL, LT-alpha, OX-40L, RANKL, TNF-alpha, TNF-beta and Apo2L/TRAIL.
For the detection of TNF-alpha expression on the cell surface, a Flag tag was inserted between amino acid 70 and amino acid 71 (using the numbering according to the sequence in Pennica et al., supra). An extracellular region of TALL-1 (aa 75-285; see FIG. 3), 4-1BBL (aa 59-254; Goodwin et al., Eur. J. Immunol., 23:2631-2641 (1993)), CD27 ligand (aa 40-193; Goodwin et al., Cell, 73:447-456 (1993)), CD30 ligand (aa 61-234; Smith et al., Cell, 73:1349-1360 (1993)), RANKL (aa 71-317; see WO98/28426), Apo-2 ligand (aa 40-281; see WO97/25428) or Apo-3L (aa 46-249; see WO99/19490) was individually cloned at the BamHI site. […] For APRIL (see FIG. 4) and EDA (Srivastava et al., supra), full length cDNA clones without Flag tag were used.
Transfected COS 7 cells were subsequently incubated with TACI.ECD.hFC immunoadhesin (prepared as described above). […]

In assay [8] the target is B2. The assay can be described thus: co-immunoprecipitation and Western blot. As for the experimental part: as §1, with “The immunoadhesin constructs consisted of amino acids 5-51 of the human BCMA polypeptide (see FIG. 2). The BCMA-ECD constructs were expressed in CHO cells using a heterologous signal sequence (pre-pro trypsin amino acids 1-17 of pCMV-1 Flag (Sigma)) and encoding the human IgG1 Fc region downstream of the BCMA sequence, and then purified by protein A affinity chromatography.” left out
One set of reactions (FIG. 8; Panels A-C) was subjected to immunoprecipitation through the receptor-immunoadhesin with protein A-agarose (Repligen). […] The immunoprecipitates were then analyzed by Western blot with horseradish peroxidase-conjugated anti-Flag M2 mAb (Sigma) to detect the Flag-tagged ligands (FIGS. 8A-C) or horseradish peroxidase-conjugated goat anti-human IgG pAb (Amersham) to detect the receptor-immunoadhesins (FIGS. 8D-F).

The target in the assay “Flag-LIGHT” is B4. Put plainly: co-immunoprecipitation (protein A or anti-Flag M2 agarose) and Western blot. As for the experimental part:
as §1, §2

The target of assay [9] is T1, TACI (the 265 amino acid form of human …). Put plainly: conditioned medium on TACI-transfected COS 7 cells, in situ AP staining. As for the experimental part: In an in vitro assay, COS 7 cells (ATCC) were seeded into 12 well plates 24 hours before transfection. The cells were then transfected with 1 microgram TACI (the 265 amino acid form of human TACI described above, cloned in pRK5B vector, infra) or vector plasmid (pRK5B) alone. 18-24 hours after transfection, the cells were incubated with conditioned medium containing AP-TALL-1; AP-TNF-alpha; or AP-EDA for 1 hour at room temperature and stained for AP activity in situ as described in Tartaglia et al., Cell, 83:1263-1271 (1995).

Take IgG Ctrl (antibody): the % Max Binding to BCMA with Flag-APRIL [1] came out at 100%. In addition, the % Max Binding to TACI with Flag-APRIL [2] was found to be 100%. As for B1, the values for the binding result in assay [3] and in assay [4] were “binds” and “no binding (tested: 1 µg of each)”, respectively.

As to B2, the binding result in assay [4] is on record as “no binding (tested: 1 µg of each)”. Consider B3, for which the binding result (in the assay with Flag-AP-APRIL; in assay [5]) was “binds” in each case. Regarding B4, in assay [6], the binding result was “no binding (tested: 1 µg of each)”. B5: in assay [7], the binding result is “no binding (tested: 1 µg/ml)”. Consider B6, for which the binding result in the assay with Flag-APRIL [8] is recorded as “binds”; in assay [7] it was “no binding”; with Flag-LIGHT, “no binding (tested: 1 µg of each)”. For B7, the binding result in assay [9] is on record as “no binding”.
